Measurements: patent EP0530937A1

What was measured:
[1] = target: collagen receptor on MTLn3 cells (rat mammary tumor cells) (rat); assay: adhesion of 51Cr-labelled MTLn3 cells to wells coated with collagen type III with 10 µl Superose-pool (0.5 mg protein/ml)
[2] = target: collagen receptor on human platelets (human); assay: adhesion of platelets to a plate coated with collagen type I with 50 µl Superose-pool (0.5 mg protein/ml), 2 mM Mg2+
[3] = target: collagen receptor on MTLn3 cells (rat mammary tumor cells) (rat); assay: adhesion of 51Cr-labelled MTLn3 cells to wells coated with collagen type III with 5 µl Superose-pool (0.5 mg protein/ml)
[4] = target: collagen receptor on MTLn3 cells (rat mammary tumor cells) (rat); assay: adhesion of 51Cr-labelled MTLn3 cells to wells coated with collagen type III with 2 µl Superose-pool (0.5 mg protein/ml)
[5] = target: collagen receptor on human platelets (human); assay: adhesion of platelets to a plate coated with collagen type I with 10 µl Superose-pool (0.5 mg protein/ml), 2 mM Mg2+

**Q.** For “collagen-induced platelet aggregation inhibitor from saliva of Triatoma pallidipennis (as saliva or as partially purified "Superose"-pool)”, which cell attachment (cpm) [1] is on record?
**A.** Its cell attachment (cpm) is 1080 cpm.

**Q.** What about the adherent platelets per mm² (adherent platelets per mm²) [2] of the same substance?
**A.** Its adherent platelets per mm² (adherent platelets per mm²) is 6500.

**Q.** And the cell attachment (cpm) [3]?
**A.** The cell attachment (cpm) was 1610 cpm.

**Q.** And the cell attachment (cpm) [4]?
**A.** Its cell attachment (cpm) is 2070 cpm.

**Q.** And the adherent platelets per mm² (adherent platelets per mm²) [5]?
**A.** Its adherent platelets per mm² (adherent platelets per mm²) is 12000.
